Paper PMC4798592, “A Surfactant-Induced Functional Modulation of a Global Virulence Regulator from Staphylococcus aureus” (PLoS ONE, 2016)

Biological target: the molecule itself
Experiment: cross-linking; glutaraldehyde-mediated cross-linking of rSarA (10 uM) in buffer B [20 mM phosphate buffer (pH 8.0), 100 mM NaCl, 5% glycerol] or buffer C (buffer B with 0.7 mM TX-100); analysed by SDS-13.5% PAGE

B1: recombinant S. aureus SarA (rSarA) (natural protein)
chain: MAITKINDCFELLSMVTYADKLKSLIKKEFSISFEEFAVLTYISENKEKEYYLKDIINHLNYKQPQVVKAVKILSQEDYFDKKRNEHDERTVLILVNAQQRKKIESLLSRVNKRITEANNEIEL
notes: source: purified as described [8]
stoichiometry N: 2
